Reference: a protein production outcome set (Wang et al. 2014)

Assay: label from the status in PepcDB records

| Sequence | protein production |
| --- | --- |
| MDQNTTPAPGLRETKKRETRQLISDHATRLFIERGFEHTTIAEIADAARVAKKTVTNYFPRKEDLALDHQDEFVAALAATVTARGAGETPLTALRHAFLAAVAAQDPVAGFAGQAFTRMIADSPTLTACLRGLHDRREEALTAALAGTTDTPPDDITPRTAAALLGGVHRVLFNRIQELTLAGRATPEIAEVLAREAPRAFDLLTPALAEYGRRP | not failed |
| IRYAIERQRVEEALRHSEERFRVALKNSPIFVFNQDRDLRYTWIYNPIAGWTVEEMLGKQDSEIMSEQDAQCLTAIKYHVLTTGIGTRQVVSIGTPLGTKYYDLTVEPLRNESQDIVGITCACIDISERKLAEAKIREQ | not failed |
| MPKAAWEPEYHRVFVDLCVEQKMLGNQPGTQHILKPFLQRTGARFTRNQLKNHWDTMIKQWKIWCRLVQCSDMQWDPQTNTFGANDQDWANYLHVNPEAGQYRLNPPSFLEKLELIFEDSNLDDEGTSGSKRKRIAKHRDEDNDNTGDEEDTQSASNFSSPQSKGYWSPSSHELFVDLLFQEALKGNRPDSHYPKETWKMILETINQNTGKSFTRPQLKNHWDCTRKSWKIWCQVIGAPVMKWDATSRTFGATDEDWKNYLKENHRAAPFRRKQLPHADKLATIFKGLIEPGKAYFRSYRRRVLDHHSESPQLHDPTPLSTLYTNEPVSGSEGGADEDDNDDDDEQPTPQHRRFNSVGFAESRLQDVEIVTPGCHRLKTELMKESPVSASVRQYEYTIGECIECLDSMEEVEQGSDLYLFALDLFVKKEYREIFLLLKNSSLRMSWLLRLRSGGLTIAA | failed |
| NPNPISIPIDLSQAGSVVEKEVKIEESWSYHLILQFAVHDRKEDGGLDGKRVWKFLGFNSYDPRDGKQVGYVDYRLAKSELGDLIDETYDCDGTVVPIKITIHQINQDNTKKLIADNLYMTKGNGSGAYTRDITTISLDKGKYIFRIENIEAFSEMIGRKVDFTIYINKRDK | not failed |
| MTFHKIFFVISLMLVVSLVNAVDYSVVDNSGDSTGGRRFRGEIGGISYGTQTLRSATDFVWRLFQQTNPSDRKSVTKITLFMENGDGVAYNSGNEIHFNVGYLAGVYRS | not failed |
| MPFTVTIEVSKQFETSTLPEKVFALLSDVPRSASYFPDVEKLEPLGSNAFRWIMEKNAIGGHTLKQTIYACTYRSDRVTMSVAWVPVEGEGNARVEGNWQIEFAFIQKIDRYISNLKETFAK | failed |
| MDITNIKEMNYEEVFSITITVDKPILIGQDDIVGRRQLIPIISGKVSGNNFNGKVLPGGIDSQIVRPDGKCELSARYAIRLDDGAAIYIENNGIRTVPDEYIEAVKSGEFVDPNAYYFRTIPTFETYSPKYKWMMNHIFVCCASRLPENVLLKFYKIS | not failed |
| MLMVFALLVSLAFASYHPDDAVVLRSADWSEVVLNPQSAQADGPVQNVLGLLGAQLAEACVPGFIGYGVLLISGLLMVWGYAVFRHASLRRLLYPSLLTAFSAFILSCVVGWVHHTVDAPLRAWAGLVGIGTAGWMQNVFGEVGSFILLLLAGAVLLLLVVDHDIQRTVDRVIRAARRIGAGVSAAGAYIRDQWSRARAHAPEPKATSPASDPSSSASASGSPSASSPEPPSSPPAEESTSSPPPARTRPEDSGAQTPSVRRNDLFRPGRDPAPSATDDNTASPEPAPDSSARTSDADPPEDDAPKDIPDETTASTPAEESPATDSPPPSRPADENASSDEPAAPAPDEPPPDASDGPDDDVSMTIQEQVEEETTDEIERTAELPDDFEYEPPSLDLLDESVDTDPTINREELEENKRVLLDKLDMYNIEIEEINAVVGPTVTRYELTPAPGIKVSRIKSLEDDLAMAMAAPGIRMIAPIPGKSAVGVEIPNRNRELVRLRDVIGTRKFQDTDLKLPLPLGKNIEGEVHVGDLATMPHLLIAGATGSGKSVGLNSIITGLIYACHPANLRFVIIDPKKIELQQYTALETQFVAVPEDIDQTVITDIDEASGVLKSVEREMETRYDLLSDASVRNITGYNEKFQAGELDPTEGHRHMPYLVVVVDELADLMMAAGDDVEGPISRLAQMARAVGIHLILATQRPSVDVVTGVIKANFPSRIAFEVASRVDSRTILDQGGAEDLVGNGDMLFLSGSDLKRLQGPFVSVEEVEEVVDYVADQPGVTPYTLPSLQDAGHGPDETLGVEDTDEKFEEAARVIVRRQQGSVSLLQRKLAVGYTRAARIVDQLEEAGIVGPFNGTKARDVLVDDEQALDDLLHGEDADEADPEEA | failed |
| MLRYSFRSIKRNFASSLLLVGALVAIFVASPLSFSMLSSIQAEVDANIKQYARGSYDLLIRPIGTQTAVETTLGVVEENYLALGEGGISLNEWETIKALDGVEVAAPVASLGYFAGETHTVAVEFPNNSSFIEGRFQTSDGLHTYPLQAGGSYYVLEQEGYYYGYEYVQQGNEEIPGSGGPPFFSMPVTYHLIVGIDQQEEEKLTGFNFSALNNSIPEGFRFYFDLDVERHIKIIYLKDATTPLTVQVDVAPIDWETADTERLKDELGLTYDEPLFISEQFPSLFTQFQDRHIGPIETYTFDLSEHMPPFSYDPVSLDYDGSMHEPIENAYGVSESSRFYQASPIDYDIQAGGRLKVKQVGDYEGIPIYRTIQEQGGAAYELHGIGKIPFLLYPVGHFTTAEYEHSLSASPLGIYQQAPSVLSDGTMLHETIAPGSFVNAPAHGLMALEDAAFIKGDAPIDAIRIRVAGITAYDQEAVDKMSQVATEIAKLGDYQIDVIAGASPAPMTMDVEGIGEVVQPWTSLGAAATIRDGWNGTNVLIAGLFLFVSISYLANRFHFRRHTKKEEQELLLDLGWKKRHIRWLYLMENSSLIFLSAAIASLILLAYIWLYQADWFILIFFVAVVVLTFLFSLIYVSMMRGVQKISFRRLKGQTVWIRNLFYYRRLLTLSIIQLASVALLLAFVVSSIAATIAQTGGTYLGVYINDAVFIPLVSIMVAALFLAVLTVGESTSAFLLLRKEELQTLRDIGWRIKDVHRLCLKESAVWTTGAIMGGVVISLLTVSVFYSLSLSFLLFAGVAVVLLSSIAIVTAGGMIRSSLRKMA | failed |
| MKNTELEQLINEKLNSAAISDYAPNGLQVEGKETVQKIVTGVTASQALLDEAVRLGADAVIVHHGYFWKGESPVIRGMKRNRLKTLLANDINLYGWHLPLDAHPELGNNAQLAALLGITVMGEIEPLVPWGELTMPVPGLELASWIEARLGRKPLWCGDTGPEVVQRVAWCTGGGQSFIDSAARFGVDAFITGEVSEQTIHSAREQGLHFYAAGHHATERGGIRALSEWLNENTDLDVTFIDIPNPA | not failed |
| MMTETVRTWRHIPQRYNLTGSKCLQCGNVFFPSRIICPECRRKGKLEELKFSGKGRIHSYSVINTPTDEFKDIAPYVVAIVELEEGARVTSQIVDCDPDSIEIGDEVEMVFRKVREEGEDGVISYGFKFKPKT | failed |
| MRIVSRDRWFETRHFYNGISLIHEPYVRPFYRCNMWHVQGRERDVLVDSGSGLVSLCEQLPWLTERPLLAVASHTHFDHIAGHHEFAERLAHPAEAEILAAPDGDNTLARAYVGDEMFEAHPECPLCYAEYRVRAAPATRLIDEGDVLDLGDRVLQVLHTPGHSPGGISLWEAATQTLFSGDIVYDGPLVEDAYHSNLDDYASSLARLRELPVRTVHGGHFASFSGERLREMIVAWFRNHDR | failed |
| SSKPPPKPVKPGEGGQVKVFRALYTFEPRTPDELYFEEGDIIYITDMSDTNWWKGTSKGRTGLIPSNYVAEQAESIDNPLHEAAKRGNLSWLRECLDNRVGVNGLDKAGSTALYWACHGGHKDIVEMLFTQPNIELNQQNKLGDTALHAAAWKGYADIVQLFLAKGARTDLRNIEKKLAFDMATNAACASLLKKKQGTDAVRTLSNAEDYLDDEDSD | failed |
| KGIKKEIHINDKVIYYTHIEKGSSTVCFMFSGSGYNYDKPLFYYATMLMLEHKIDVVHIHYSYDEQVMNKPMEEVTKIMMDDINPVMKEVLKAEQYNDTIFLGKSLGTIPIANDLMKREEFLQSKMILLTPLLTFDTIFDSILHSNHEGFLVMGDKDHQYNADQVDQLHKTNLQIEVVKNANHSVNVGGYETENSIEAIAKIIGKLKEVVRTN | failed |
